Data reported in publication PMC12705745.

Biological target: T1, recombinant human C-reactive protein (human), P02741
T1 chain: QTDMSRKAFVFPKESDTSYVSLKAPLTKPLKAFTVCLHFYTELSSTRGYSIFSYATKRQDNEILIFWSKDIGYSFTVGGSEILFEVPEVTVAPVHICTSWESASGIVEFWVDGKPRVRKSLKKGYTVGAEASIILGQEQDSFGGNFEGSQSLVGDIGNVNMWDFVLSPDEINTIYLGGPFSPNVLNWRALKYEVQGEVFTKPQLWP
Assay: cryo-EM structure; hCRP 6 mg/ml incubated with 4.5 mM CPS23F on ice for ~1 h, 0.02% Tween-20; C5 symmetry applied during reconstruction; 2.78 Å
Conditions: remark: other sources report otherwise

B1: recombinant human C-reactive protein, P02741-1 19-224 (natural protein)
chain: QTDMSRKAFVFPKESDTSYVSLKAPLTKPLKAFTVCLHFYTELSSTRGYSIFSYATKRQDNEILIFWSKDIGYSFTVGGSEILFEVPEVTVAPVHICTSWESASGIVEFWVDGKPRVRKSLKKGYTVGAEASIILGQEQDSFGGNFEGSQSLVGDIGNVNMWDFVLSPDEINTIYLGGPFSPNVLNWRALKYEVQGEVFTKPQLWP
A stoichiometry N of 5 was found for B1 in this work.
